The values below are quoted from earlier work in PMC10304963.

pKd: −log10 of the molar value.

For data set [1], the target named is SIRPα variant 2 (Homo sapiens) (UniProt P78324).
Data set [2] addresses SIRPα variant 1 (Homo sapiens) (UniProt P78324).

With CD47 (from UniProt Q08722), the negative logarithm of the Kd (pKd) is 6.19 in data set [1] and 6.13 in data set [2].

The pKd is the negative decadic logarithm of the Kd, by convention in mol/L.
